Tested on: MS2 coat protein
Experiment: apparent KD of MS2 coat protein; designed switch direction (-1 OFF switch, 1 ON switch): -1; higher = weaker reporter binding
In short: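 Apparent KD, taken as the median over clusters for each design, was obtained by curve-fitting normalised cluster fluorescence. Designed RNA switches had been transcribed on Illumina chips by stalled E. coli RNA polymerase and titrated with SNAP-549-labelled MS2 coat protein, doubling from 0.7 or 1.5 nM to 3 µM.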

[1] = Eterna round: R95, input ligand: microRNA oligo, concentration not stated
[2] = input ligand: microRNA oligo, concentration not stated

| Sequence | apparent KD of MS2 coat protein (input ligand: FMN 200 uM) [nM] | apparent KD of MS2 coat protein (input ligand: none) [nM] | further results |
| --- | --- | --- | --- |
| GUCACUAGAGGAUAUACAAUGGUAUAUGAUCCUAGAGACAAACAUGAGGAUCACCCAUGUAGAAGGCUAGUAAA [Exclusion 2 - 1] (puzzle: Exclusion 2) |  |  | apparent KD of MS2 coat protein (Eterna round: R95, input ligand: FMN 200 uM): 32.1 nM; apparent KD of MS2 coat protein [1]: 153 nM; apparent KD of MS2 coat protein (Eterna round: R95, input ligand: none): 89.5 nM |
| GUCAGACGAGGAUAUAGAUUUAAGUACAUGAGGAUCACCCAUGUGCAUAUGUAUUUAGAUUUAGAAGGCGUCUGAC [E5/18-A3] (Eterna round: R97, puzzle: Exclusion 5) | 584 | 428 |  |
| GUCAGCUCGUGAGGAUAUACAUGAUAGAUCGAUUAAUUAAUUAAUUUAACAUGAGGAUCACCCAUGUAGAAGGUACGAGCUGAC [ENG2/1-C1] (Eterna round: R96, puzzle: Exclusion NG 2) |  |  | apparent KD of MS2 coat protein [2]: 43.3 nM |
| GUCAGCUCGUGAGGAUAUACAUGCGUGCUUCGGCACGUAUGAUAGAUCACAUGAGGAUCACCCAUGUAGAAGGUACGAGCUGAC [ENG2/4-C1] (Eterna round: R96, puzzle: Exclusion NG 2) | 13.4 | 14.8 | apparent KD of MS2 coat protein [2]: 12.2 nM |
| GUCAUACAUGAGGAUCACCCAUGUGAGGAUAUGAGUGGUGCUGCUAGGUAGUAUAGACUCAGAAGGCGCAUGAU [Malcxlusion 1 - Jieux - Exclusion 1] (Eterna round: R97, puzzle: Exclusion 1) | 288 | 105 |  |
| GUCAUACAUGAGGAUCACCCAUGUGAGGAUAUGGGCGGCGCCGCAAAAGCGGCGCCGCCCAGAAGGCGCAUGAU [Malcxlusion 5 - Jieux - Exclusion 1] (Eterna round: R97, puzzle: Exclusion 1) | 195 | 71.5 |  |
| GUCAUCAAACAUGGGAUCAACAUGAGGAUCACCCAUGUUGACAAGUUUUUUGCUCGUCUUAUAAUAAGUUUGAUGAC [Antenna 9 - Jieux - Sensor, turn-off variant 1] (Eterna round: R97, puzzle: Sensor, turn-off variant 1) | 15.5 | 16.2 |  |
| GUCAUCACACAUGGGAUCAACAUGAGGAUCACCCAUGUUGUCAAGUUUUUUGCUCGUCUUAUAAUACGUUUGAUGAC [Mod-Jxc] (Eterna round: R97, puzzle: Sensor, turn-off variant 1) | 26.7 |  |  |
| GUCCGGCAUGUAGGAUAUGGAUCCGAUUAGGAUUUAGAAGGACAUGAGGAUCACCCAUGUACAUUUAAUUAGUCAUUACCGGAC [EXclNG1-LROPPY03] (Eterna round: R96, puzzle: Exclusion NG 1) | 14.6 | 14.9 | apparent KD of MS2 coat protein [2]: 9.47 nM |
| GUCCUACAUGAGGAUCACCCAUGUGAGGAUAUGCGGUUAGCUGCUAGGUAGUUAGUAUGCAGAAGGCGCGUGAA [EX1 #80] (Eterna round: R97, puzzle: Exclusion 1) | 15.9 | 14 |  |
| GUCCUCAUGACAUGAGGAUCACCCAUGUAUUAUUUGUUAACUGAGGAUAUACUCUUAAUGUUUAUGUAGAAGGCAGAUUCGGUC [JR_ExcNG3_Sub019] (Eterna round: R96, puzzle: Exclusion NG 3) | 51.6 | 40.7 | apparent KD of MS2 coat protein [2]: 37.8 nM |
| GUCCUGGACUAUCACAAGCACAUGAGGAUCACCCAUGUCAUGGGUAGAUUUAUAAAUAAAGAUACUGCUCGUCUUAU [Cac Sensor turn off var1 sub7] (Eterna round: R97, puzzle: Sensor, turn-off variant 1) | 197 | 252 |  |
| GUCGAGUGAGGAUAUGGUGAGUAGUGCCUGAGCGCUGCUCACCAGAAGGCACAUGAGGAUCACCCAUGUAUAGC [JL-ex4-2.05 denovo] (puzzle: Exclusion 4) |  |  | apparent KD of MS2 coat protein [1]: 15.5 nM |
| GUCGAGUGAGGAUAUGGUGAGUAGUGCCUGAGCGCUGCUCACCAGAAGGCACAUGAGGAUCACCCAUGUAUGAC [Mat - Exclusion 4 - Mod of JL - D12] (puzzle: Exclusion 4) |  |  | apparent KD of MS2 coat protein [1]: 17.8 nM |
| GUCGUGCAGCUUUGCUGUACGAGUACAUGAGGAUCACCCAUGUAGGAUAUGGUACGCUUUGCGUGCCAGAAGGACGUGCGUUGG [salish99_ExNG3_r04_004] (Eterna round: R96, puzzle: Exclusion NG 3) |  |  | apparent KD of MS2 coat protein [2]: 38.3 nM |
| GUCGUGCGGCUUUGCUGUACGAGUACAUGAGGAUCACCCAUGUAGGAUAUGGUUCGCUUUGCGUGCCAGAAGGGCGUGCGUUGG [Excl-NG3-LRO12] (Eterna round: R96, puzzle: Exclusion NG 3) | 31.3 | 31.1 | apparent KD of MS2 coat protein [2]: 21.6 nM |
| GUCGUGUUAGGAUAUGGCAACUACUAAUAAAUUAGUAGUUGUUAGAAGGAACAUGAGGAUCACCCAUGUAUGAC [-23, -22.5 kcal, A 34%] (Eterna round: R97, puzzle: Exclusion 4) | 122 | 39.9 |  |
| GUGAAACAUGAGGAUCACCCAUGUCAGGAUAUGCGAAUUUCAUCAAAAGAUGAAAUUUGCAGAAGGGACUGUAC [Omei Ex1 A21] (Eterna round: R97, puzzle: Exclusion 1) | 136 | 70.3 |  |
| GUGAAACAUGAGGAUCACCCAUGUGAGGAUAUGUUUUAGUACUGGAGACAGUACAUCUAUAGAAGGCACAAUGG [Mat - Mod of JL D75] (puzzle: Exclusion 1) |  |  | apparent KD of MS2 coat protein [1]: 54.7 nM |
| GUGAGCAGACGGAGAUCCAACAUGAGGAUCACCCAUGUCUCACAAGCUUUUUGCUCGUCUUAUCCUCCUCUGUUCAC [Elimod 22 - Jieux - Sensor, turn-off variant 1] (Eterna round: R97, puzzle: Sensor, turn-off variant 1) | 15.8 | 14.6 |  |
| GUGAGGGAGUGAGGAUAUCAGGGAGAUAAGAAAUGAGAAGGUACAUGAGGAUCACCCAUGUAAGAGUAGGGAAGAGAGAAGAGU [Default title] (Eterna round: R96, puzzle: Exclusion NG 1) | 69.3 | 66.7 | apparent KD of MS2 coat protein [2]: 31.6 nM |
| GUGAUAACCAAGCUAGCCAACAUGAGGAUCACCCAUGUGUUCGAUAUGCAACAGGUAUGAUCUUAAUUUGCUCGAUC [Eternabot (Original) Solution 20] (Eterna round: R97, puzzle: Sensor, turn-off variant 1) | 44.3 | 48.5 |  |
| GUGAUCUAUCAUGUAAUGAACAUGAGGAUCACCCAUGUAGGCAAGUUUUUUGCUCGUCACAUAAUAAGAUAGAUCAC [Antenna 19 - Jieux - Sensor, turn-off variant 1] (Eterna round: R97, puzzle: Sensor, turn-off variant 1) | 14.3 | 13.2 |  |
| GUGCAACAUGAGGAUCACCCAUGUCAGGAUAUGCGAAUUUCAUCAAAAGAUGAAAUUUGCAGAAGGGACUGUAC [Omei Ex1 A20] (Eterna round: R97, puzzle: Exclusion 1) | 40.6 | 48.9 |  |
| GUGCCGCGAGGAUAUACAGACGGGUCCAGGGCGUGUCUCGGACUUGAGGAUCACCCAAGUAGAAGGCGUCUCAG [salish99_ex2_r4_615] (Eterna round: R97, puzzle: Exclusion 2) | 77.6 | 26.7 |  |
